According to IntAct's records for PubMed 16763556:

Key:
polh_human POLH = biological target: T1, polh_human POLH (UniProt Q9Y253)
T1 sequence: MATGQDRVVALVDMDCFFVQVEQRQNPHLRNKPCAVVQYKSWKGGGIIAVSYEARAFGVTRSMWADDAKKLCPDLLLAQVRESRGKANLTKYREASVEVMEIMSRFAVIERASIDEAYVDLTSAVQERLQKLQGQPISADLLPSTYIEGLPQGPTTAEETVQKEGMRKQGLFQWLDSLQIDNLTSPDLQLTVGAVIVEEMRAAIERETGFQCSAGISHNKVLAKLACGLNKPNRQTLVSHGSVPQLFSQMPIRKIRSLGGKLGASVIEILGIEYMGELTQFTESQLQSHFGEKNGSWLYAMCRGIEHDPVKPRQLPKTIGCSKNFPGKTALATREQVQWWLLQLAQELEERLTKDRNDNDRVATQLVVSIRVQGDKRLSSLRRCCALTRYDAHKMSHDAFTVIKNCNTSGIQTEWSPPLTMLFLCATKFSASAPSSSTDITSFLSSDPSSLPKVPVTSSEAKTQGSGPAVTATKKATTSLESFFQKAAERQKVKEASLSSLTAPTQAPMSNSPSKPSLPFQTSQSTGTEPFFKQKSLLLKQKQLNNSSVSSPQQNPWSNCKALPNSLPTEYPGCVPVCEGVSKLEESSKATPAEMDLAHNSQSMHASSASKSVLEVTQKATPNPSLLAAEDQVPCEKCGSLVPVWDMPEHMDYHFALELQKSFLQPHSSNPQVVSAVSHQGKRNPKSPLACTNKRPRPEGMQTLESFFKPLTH

poli_human POLI = biological target: T2, poli_human POLI (UniProt Q9UNA4)
T2 sequence: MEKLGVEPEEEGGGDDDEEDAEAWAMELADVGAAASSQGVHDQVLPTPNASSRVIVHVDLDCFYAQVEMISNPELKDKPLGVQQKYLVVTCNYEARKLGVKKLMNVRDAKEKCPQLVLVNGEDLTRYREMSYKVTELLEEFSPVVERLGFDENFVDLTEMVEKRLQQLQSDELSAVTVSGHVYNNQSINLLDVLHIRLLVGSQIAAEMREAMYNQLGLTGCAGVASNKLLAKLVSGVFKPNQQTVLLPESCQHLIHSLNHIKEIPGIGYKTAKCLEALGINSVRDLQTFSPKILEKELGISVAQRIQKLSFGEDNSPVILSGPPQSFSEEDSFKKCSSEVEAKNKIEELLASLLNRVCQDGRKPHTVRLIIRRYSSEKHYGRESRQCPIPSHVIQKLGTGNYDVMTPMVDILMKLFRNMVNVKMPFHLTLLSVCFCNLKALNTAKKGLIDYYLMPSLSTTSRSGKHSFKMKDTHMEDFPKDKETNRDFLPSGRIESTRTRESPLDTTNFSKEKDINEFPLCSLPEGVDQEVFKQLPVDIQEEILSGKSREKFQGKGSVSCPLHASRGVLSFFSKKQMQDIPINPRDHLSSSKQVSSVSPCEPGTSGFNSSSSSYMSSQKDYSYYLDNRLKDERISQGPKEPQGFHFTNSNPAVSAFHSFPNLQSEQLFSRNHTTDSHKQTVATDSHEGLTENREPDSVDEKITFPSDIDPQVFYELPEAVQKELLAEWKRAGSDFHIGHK

effect of a mutation on the interaction (polh_human POLH) | effect of a mutation on the interaction (poli_human POLI) | Substance
disrupting interaction | disrupting interaction | Polyubiquitin-C (Homo sapiens) (from UniProt P0CG48) G75S
disrupting interaction | disrupting interaction | Polyubiquitin-C (Homo sapiens) (from UniProt P0CG48) G76S
